Data published in the supplement of paper PMC9112550, “Optimization of the antimicrobial peptide Bac7 by deep mutational scanning” (BMC Biology, 2022).

System: Escherichia coli TOP10
Experiment: shrunken log2 fold change of peptide-encoding DNA abundance (4.5 h post-induction vs induction); higher = less antimicrobial activity (less host growth inhibition)
Settings: time post-induction: 4.5 h; library: site-saturation at positions 5, 18, 19, 20
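Further: peptides expressed intracellularly from a pBAD plasmid library in pooled LB shake-flask culture, induced with 0.3% L-arabinose, DNA abundance read by NGS, three biological replicates, DESeq2 with apeglm shrinkage.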

Point of comparison: RRIRNRPPRLPRPRPRPQKSPRP, “shrunken log2 fold change” value -0.101. Against it:
- RRIRERPPRLPRPRPRPRKHPRP — within 0.2 log units, 0.0582
- RRIRPRPPRLPRPRPRPHLNPRP — lower, -0.517
- RRIRDRPPRLPRPRPRPYSSPRP — within 0.2 log units, -0.152
- RRIRNRPPRLPRPRPRPVCVPRP — within 0.2 log units, -0.04
- RRIRVRPPRLPRPRPRPRMIPRP — higher, 0.224
- RRIRCRPPRLPRPRPRPSAIPRP — within 0.2 log units, -0.014
- RRIRSRPPRLPRPRPRPSVMPRP — lower, -0.391
- RRIRKRPPRLPRPRPRPFNGPRP — lower, -0.407
- RRIRGRPPRLPRPRPRPKGIPRP — higher, 0.529
- RRIRCRPPRLPRPRPRPCEQPRP — within 0.2 log units, -0.222
- RRIRDRPPRLPRPRPRPCKNPRP — within 0.2 log units, 0.056
- RRIRRRPPRLPRPRPRPDCDPRP — higher, 0.222
- RRIRARPPRLPRPRPRPPFNPRP — higher, 0.167
- RRIRCRPPRLPRPRPRPAKGPRP — within 0.2 log units, -0.179
- RRIRPRPPRLPRPRPRPARCPRP — higher, 0.67
- RRIRIRPPRLPRPRPRPNPAPRP — within 0.2 log units, 0.0171
- RRIRVRPPRLPRPRPRPCDIPRP — within 0.2 log units, -0.149
- RRIRERPPRLPRPRPRPKQQPRP — within 0.2 log units, -0.0499
- RRIRCRPPRLPRPRPRPMGPPRP — higher, 0.128
- RRIRTRPPRLPRPRPRPFYHPRP — lower, -0.486
- RRIRWRPPRLPRPRPRPKTEPRP — higher, 0.111
- RRIRDRPPRLPRPRPRPLSSPRP — higher, 0.184
- RRIRGRPPRLPRPRPRPPNIPRP — within 0.2 log units, 0.083
- RRIRPRPPRLPRPRPRPEPCPRP — higher, 0.215
- RRIRPRPPRLPRPRPRPFAVPRP — within 0.2 log units, -0.113
- RRIRPRPPRLPRPRPRPACHPRP — higher, 0.111
- RRIRCRPPRLPRPRPRPHIRPRP — lower, -0.585
- RRIRERPPRLPRPRPRPIYWPRP — within 0.2 log units, -0.0719
- RRIRMRPPRLPRPRPRPQTWPRP — higher, 0.39
- RRIRKRPPRLPRPRPRPSDAPRP — within 0.2 log units, -0.0187
- RRIRCRPPRLPRPRPRPADVPRP — lower, -0.391
- RRIRIRPPRLPRPRPRPRLMPRP — within 0.2 log units, -0.0272
- RRIRSRPPRLPRPRPRPNKGPRP — lower, -0.413
- RRIRNRPPRLPRPRPRPRGKPRP — within 0.2 log units, 0.0233
- RRIRDRPPRLPRPRPRPPVDPRP — higher, 0.361
- RRIRVRPPRLPRPRPRPVYEPRP — within 0.2 log units, -0.127
- RRIRTRPPRLPRPRPRPKELPRP — higher, 0.16
- RRIRARPPRLPRPRPRPKLMPRP — higher, 0.357
- RRIRFRPPRLPRPRPRPKQYPRP — lower, -0.43
- RRIRSRPPRLPRPRPRPSQGPRP — within 0.2 log units, -0.252
- RRIRSRPPRLPRPRPRPRWEPRP — higher, 0.275
- RRIRMRPPRLPRPRPRPWRHPRP — within 0.2 log units, 0.0256
- RRIRIRPPRLPRPRPRPARVPRP — within 0.2 log units, -0.0658
- RRIRLRPPRLPRPRPRPAQLPRP — higher, 0.166
- RRIRLRPPRLPRPRPRPPPYPRP — higher, 0.388
- RRIRQRPPRLPRPRPRPDNAPRP — within 0.2 log units, -0.246
- RRIRTRPPRLPRPRPRPCTWPRP — within 0.2 log units, -0.0134
- RRIRCRPPRLPRPRPRPVYEPRP — lower, -0.342
- RRIRRRPPRLPRPRPRPPHLPRP — higher, 0.52
- RRIRDRPPRLPRPRPRPTCAPRP — higher, 0.927
- RRIRWRPPRLPRPRPRPWACPRP — within 0.2 log units, 0.0611
- RRIRARPPRLPRPRPRPLTVPRP — higher, 0.242
- RRIRFRPPRLPRPRPRPYTVPRP — within 0.2 log units, -0.00354
- RRIRYRPPRLPRPRPRPQCYPRP — within 0.2 log units, -0.0301
- RRIRARPPRLPRPRPRPSRMPRP — higher, 0.362
- RRIRPRPPRLPRPRPRPMDIPRP — within 0.2 log units, -0.158
- RRIRERPPRLPRPRPRPGGIPRP — within 0.2 log units, 0.0836
- RRIRGRPPRLPRPRPRPTELPRP — higher, 0.261
- RRIRCRPPRLPRPRPRPFSGPRP — within 0.2 log units, -0.275
- RRIRERPPRLPRPRPRPHHGPRP — lower, -0.43
- RRIRGRPPRLPRPRPRPQGHPRP — higher, 0.278
- RRIRSRPPRLPRPRPRPSANPRP — within 0.2 log units, -0.0142
- RRIRRRPPRLPRPRPRPSAKPRP — within 0.2 log units, 0.0742
- RRIRQRPPRLPRPRPRPICEPRP — within 0.2 log units, 0.0925
- RRIRQRPPRLPRPRPRPLERPRP — within 0.2 log units, 0.0228
- RRIRRRPPRLPRPRPRPYFEPRP — lower, -0.562
- RRIRRRPPRLPRPRPRPERKPRP — within 0.2 log units, 0.0556
- RRIRDRPPRLPRPRPRPVYRPRP — within 0.2 log units, -0.0426
- RRIRCRPPRLPRPRPRPTMYPRP — lower, -0.541
- RRIRGRPPRLPRPRPRPIKPPRP — within 0.2 log units, -0.0362
- RRIRWRPPRLPRPRPRPMFIPRP — lower, -0.378
- RRIRDRPPRLPRPRPRPYMFPRP — within 0.2 log units, -0.244
- RRIRWRPPRLPRPRPRPTQMPRP — higher, 0.59
- RRIRERPPRLPRPRPRPAERPRP — higher, 0.104
- RRIRGRPPRLPRPRPRPINGPRP — higher, 0.1
- RRIRCRPPRLPRPRPRPYAPPRP — lower, -0.412
- RRIRIRPPRLPRPRPRPTFTPRP — lower, -0.373
- RRIRMRPPRLPRPRPRPQVTPRP — within 0.2 log units, -0.116
- RRIRDRPPRLPRPRPRPFCKPRP — within 0.2 log units, -0.164
- RRIRARPPRLPRPRPRPRLCPRP — higher, 0.574
- RRIRQRPPRLPRPRPRPTITPRP — within 0.2 log units, -0.273
- RRIRNRPPRLPRPRPRPHCPPRP — lower, -1.27
- RRIRARPPRLPRPRPRPPVYPRP — within 0.2 log units, 0.0965
- RRIRLRPPRLPRPRPRPTGHPRP — within 0.2 log units, 0.0863
- RRIRDRPPRLPRPRPRPPFSPRP — within 0.2 log units, 0.0121
- RRIRERPPRLPRPRPRPENWPRP — within 0.2 log units, -0.0337
- RRIRNRPPRLPRPRPRPCSFPRP — within 0.2 log units, -0.217
- RRIRGRPPRLPRPRPRPKTIPRP — higher, 0.445
- RRIRKRPPRLPRPRPRPEQYPRP — higher, 0.104
- RRIRDRPPRLPRPRPRPDYHPRP — within 0.2 log units, -0.0139
- RRIRIRPPRLPRPRPRPECNPRP — lower, -0.324
- RRIRCRPPRLPRPRPRPMQDPRP — within 0.2 log units, -0.0947
- RRIRERPPRLPRPRPRPLDCPRP — within 0.2 log units, -0.161
- RRIRARPPRLPRPRPRPKTFPRP — within 0.2 log units, -0.0543
- RRIRRRPPRLPRPRPRPFQNPRP — within 0.2 log units, 0.0537
- RRIRHRPPRLPRPRPRPHQWPRP — within 0.2 log units, -0.0218
- RRIRRRPPRLPRPRPRPGIKPRP — within 0.2 log units, -0.291
- RRIRVRPPRLPRPRPRPYHLPRP — within 0.2 log units, -0.184
- RRIRYRPPRLPRPRPRPCRNPRP — within 0.2 log units, -0.072
- RRIRPRPPRLPRPRPRPTMWPRP — higher, 0.457
- RRIRFRPPRLPRPRPRPMGHPRP — within 0.2 log units, -0.184
- RRIRTRPPRLPRPRPRPQFFPRP — within 0.2 log units, -0.11
- RRIRKRPPRLPRPRPRPIAAPRP — higher, 0.317
- RRIRIRPPRLPRPRPRPNGWPRP — higher, 0.101
- RRIRGRPPRLPRPRPRPDEGPRP — within 0.2 log units, -0.001
- RRIRVRPPRLPRPRPRPRMQPRP — higher, 0.123
- RRIRQRPPRLPRPRPRPCLEPRP — within 0.2 log units, 0.0782
- RRIRKRPPRLPRPRPRPTSAPRP — higher, 0.797
